Measured values: PMC3025574 (Nucleic Acids Research, 2010)

Target: Escherichia coli DNA gyrase B subunit (GyrB) (Escherichia coli, UniProt P0AES6 1-804)
Assay: SAXS

binding result: binds
B1: GyrA-ΔCTD (mutant GyrA subunit lacking the CTDs, residues 1–523) (domain or fragment)
chain: MSDLAREITPVNIEEELKSSYLDYAMSVIVGRALPDVRDGLKPVHRRVLYAMNVLGNDWNKAYKKSARVVGDVIGKYHPHGDSAVYDTIVRMAQPFSLRYMLVDGQGNFGSIDGDSAAAMRYTEIRLAKIAHELMADLEKETVDFVDNYDGTEKIPDVMPTKIPNLLVNGSSGIAVGMATNIPPHNLTEVINGCLAYIDDEDISIEGLMEHIPGPDFPTAAIINGRRGIEEAYRTGRGKVYIRARAEVEVDAKTGRETIIVHEIPYQVNKARLIEKIAELVKEKRVEGISALRDESDKDGMRIVIEVKRDAVGEVVLNNLYSQTQLQVSFGINMVALHHGQPKIMNLKDIIAAFVRHRREVVTRRTIFELRKARDRAHILEALAVALANIDPIIELIRHAPTPAEAKTALVANPWQLGNVAAMLERAGDDAARPEWLEPEFGVRDGLYYLTEQQAQAILDLRLQKLTGLEHEKLLDEYKELLDQIAELLRILGSADRLMEVIREELELVREQFGDKRRTEITA
